Assay results reported in publication PMC9978625, “Activation of protein arginine methyltransferase 1 and subsequent extension of moth lifespan is effected by the ROS/JNK/CREB signaling axis”.

Molecular target: T1, CREB (Har-CREB) (Helicoverpa armigera, UniProt A0A3G1CVR7 1-265)
T1 sequence: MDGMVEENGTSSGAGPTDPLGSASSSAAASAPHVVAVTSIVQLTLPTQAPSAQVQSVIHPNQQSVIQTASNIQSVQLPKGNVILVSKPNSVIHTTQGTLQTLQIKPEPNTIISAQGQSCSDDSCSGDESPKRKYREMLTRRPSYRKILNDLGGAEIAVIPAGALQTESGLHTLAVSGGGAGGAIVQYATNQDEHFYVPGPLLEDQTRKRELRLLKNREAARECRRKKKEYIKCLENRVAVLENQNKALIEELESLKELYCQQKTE
Assay: EMSA; shift competed by 100-fold unlabeled PS; EMSA (LightShift): 20 ul, 50 ng/ul poly(dI-dC), 2.5% glycerol, 5 mM MgCl2, 0.05% NP40, 20 fmol biotin probe, RT 20 min; pH and salt not stated. MPS (S22/S23) and NS competitors were tested only with brain nuclear extract without supershift, so not listed
Conditions: protein: ivt; chain copies: 2; blunt

B1: PS (PRMT1 promoter-specific probe) (dsDNA)
DNA 1: CGTTTTTGATATGAGGAAAATGAGCTCTGCAA
DNA 2: TTGCAGAGCTCATTTTCCTCATATCAAAAACG
binding result: binds
